Targets include M6; M5; M11; M1; M10; M2; A2 (UniProt Q13501).
Assay in all cases: SPR
Assay [1] addresses A2 with residue 7 substituted with alanine (UniProt Q13501).
Assay [2] has as its target A2 with residue 4 substituted with alanine (UniProt Q13501).
For assay [3], the target named is A2 with residue 9 substituted with alanine (UniProt Q13501).
Assay [4] has as its target A2 with residue 3 substituted with alanine (UniProt Q13501).

B1: purified TRB3 protein (natural protein)
chain: MRATPLAAPAGSLSRKKRLELDDNLDTERPVQKRARSGPQPRLPPCLLPLSPPTAPDRATAVATASRLGPYVLLEPEEGGRAYQALHCPTGTEYTCKVYPVQEALAVLEPYARLPPHKHVARPTEVLAGTQLLYAFFTRTHGDMHSLVRSRHRIPEPEAAVLFRQMATALAHCHQHGLVLRDLKLCRFVFADRERKKLVLENLEDSCVLTGPDDSLWDKHACPAYVGPEILSSRASYSGKAADVWSLGVALFTMLAGHYPFQDSEPVLLFGKIRRGAYALPAGLSAPARCLVRCLLRREPAERLTATGILLHPWLRQDPMPLAPTRSHLWEAAQVVPDGLGLDEAREEEGDREVVLYG
Regarding B1, the Kd with M6 was found to be 0.142 nM; in the assay with M5 it was 110 nM; with M11, 73.1 nM; in assay [1], 11800 nM; in assay [2], 4320 nM; with M1, 1640 nM. The Kd worked out at 35600 nM in assay [3]; 381 nM with M10; 402 nM in the assay with M2; 10.2 nM in the assay with A2; 3590 nM in [4].

Usually Kd stands for the concentration at which binding is half-saturated.

Values taken from PMC4557121 (2015).
